From doi:10.1101/2024.10.04.616749, “Structural basis for a nucleoporin exportin complex between RanBP2, SUMO1-RanGAP1, the E2 Ubc9, Crm1 and the Ran GTPase” (bioRxiv, 2024)

Columns and labels:
Settings in all cases: both partners purified
[1] = target: T1, Crm1 (full-length human) (human, UniProt O14980 1-1071); experiment: SEC; analytical size exclusion chromatography of complexes I, II and III assembled from a RanBP2 variant, SUMO1-RanGAP1, Ubc9, Crm1 and Ran^Q69L(GTP); fractions on SDS-PAGE
T1 construct: Crm1 (exportin-1), human, full length; also called exportin Crm1; source: E. coli BL21(DE3) SoluBL21 with Codon Plus (RIL) plasmid, purified (Ni-NTA, Ulp1 cleavage, SEC, MonoQ); not shown: His6-Smt3, N-terminal, cleaved

[2] = target: Ran^Q69L(GTP) (human, UniProt P62826 1-216, Q69L); experiment: as above
[3] = target: T1, Crm1 (full-length human); experiment: cryo-EM structure; purified RanBP2^RBD4/SUMO1^Q94P-RanGAP1/Ubc9 incubated with excess Crm1 and Ran^Q69L(GTP), gel filtration in 20 mM HEPES pH 7.4, 110 mM potassium acetate, 2 mM magnesium acetate, 1 mM TCEP; lightly crosslinked with 250 uM BS3 for 30 min; 0.1% CHAPSO

T1 sequence (O14980 whole entry): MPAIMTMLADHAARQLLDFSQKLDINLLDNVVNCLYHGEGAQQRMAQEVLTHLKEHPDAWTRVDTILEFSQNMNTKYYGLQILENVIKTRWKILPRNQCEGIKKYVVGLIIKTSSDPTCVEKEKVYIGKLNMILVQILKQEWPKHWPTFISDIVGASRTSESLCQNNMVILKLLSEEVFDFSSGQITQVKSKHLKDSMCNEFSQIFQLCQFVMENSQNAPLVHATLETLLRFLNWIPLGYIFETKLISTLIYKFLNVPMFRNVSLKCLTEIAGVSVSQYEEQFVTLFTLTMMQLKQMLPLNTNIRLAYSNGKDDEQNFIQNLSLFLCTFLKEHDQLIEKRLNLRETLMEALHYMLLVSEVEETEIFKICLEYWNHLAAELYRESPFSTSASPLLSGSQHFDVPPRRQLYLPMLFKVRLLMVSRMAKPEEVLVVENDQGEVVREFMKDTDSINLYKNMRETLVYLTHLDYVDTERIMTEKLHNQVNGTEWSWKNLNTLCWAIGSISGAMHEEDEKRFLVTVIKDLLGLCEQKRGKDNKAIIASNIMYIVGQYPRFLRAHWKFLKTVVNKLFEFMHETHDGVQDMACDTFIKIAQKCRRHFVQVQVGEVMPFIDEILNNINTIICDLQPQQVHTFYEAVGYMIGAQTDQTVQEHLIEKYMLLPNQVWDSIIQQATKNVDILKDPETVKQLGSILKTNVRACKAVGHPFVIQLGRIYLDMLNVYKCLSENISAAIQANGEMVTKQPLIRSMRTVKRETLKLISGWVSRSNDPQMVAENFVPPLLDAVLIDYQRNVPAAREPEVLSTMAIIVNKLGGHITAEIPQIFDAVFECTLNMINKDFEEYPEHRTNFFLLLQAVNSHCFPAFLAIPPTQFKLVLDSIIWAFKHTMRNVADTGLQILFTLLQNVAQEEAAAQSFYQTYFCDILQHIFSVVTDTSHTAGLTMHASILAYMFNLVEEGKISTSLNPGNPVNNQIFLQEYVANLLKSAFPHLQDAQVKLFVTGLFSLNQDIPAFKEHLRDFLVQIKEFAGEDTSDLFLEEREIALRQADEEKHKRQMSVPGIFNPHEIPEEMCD

binding result [1] | binding result [2] | binding result [3] | Binder
binds | binds |  | RanBP2^2300–3060 (RanBP2^RBD3–4) (domain or fragment, human, UniProt P49792 2300-3060, looked up, RanBP2 (Nup358), human, residues 2300-3060: RBD3, FG1, IR1-M-IR2, FG2 and RBD4; pET28b with a thrombin-cleavable His6 tag; no cleavage is described for the protein of the analytical gel filtration runs (it was cleaved for the SUMO conjugation assays); source: E. coli BL21(DE3) Codon Plus (RIL), purified (Ni-NTA, SEC)) TQEEERDGQYFEPVVPLPDLVEVSSGEENEQVVFSHRAKLYRYDKDVGQWKERGIGDIKILQNYDNKQVRIVMRRDQVLKLCANHRITPDMTLQNMKGTERVWLWTACDFADGERKVEHLAVRFKLQDVADSFKKIFDEAKTAQEKDSLITPHVSRSSTPRESPCGKIAVAVLEETTRERTDVIQGDDVADATSEVEVSSTSETTPKAVVSPPKFVFGSESVKSIFSSEKSKPFAFGNSSATGSLFGFSFNAPLKSNNSETSSVAQSGSESKVEPKKCELSKNSDIEQSSDSKVKNLFASFPTEESSINYTFKTPEKAKEKKKPEDSPSDDDVLIVYELTPTAEQKALATKLKLPPTFFCYKNRPDYVSEEEEDDEDFETAVKKLNGKLYLDGSEKCRPLEENTADNEKECIIVWEKKPTVEEKAKADTLKLPPTFFCGVCSDTDEDNGNGEDFQSELQKVQEAQKSQTEEITSTTDSVYTGGTEVMVPSFCKSEEPDSITKSISSPSVSSETMDKPVDLSTRKEIDTDSTSQGESKIVSFGFGSSTGLSFADLASSNSGDFAFGSKDKNFQWANTGAAVFGTQSVGTQSAGKVGEDEDGSDEEVVHNEDIHFEPIVSLPEVEVKSGEEDEEILFKERAKLYRWDRDVSQWKERGVGDIKILWHTMKNYYRILMRRDQVFKVCANHVITKTMELKPLNVSNNALVWTASDYADGEAKVEQLAVRFKTKEVADCFKKTFEECQQNLMKLQKGHVSLAAELSK
 | binds | binds | RanBP2^2446–3060 (RanBP2^RBD4) (domain or fragment, human, UniProt P49792 2446-3060, looked up, RanBP2 (Nup358), human, residues 2446-3060: FG1, IR1-M-IR2, FG2 and RBD4; pET28b with a thrombin-cleavable His6 tag; no cleavage is described for the protein used in cryo-EM reconstitutions and analytical gel filtration; also called RanBP2 FG1-IR1-M-IR2-FG2-RBD4 fragment; hRanBP2^RBD4; source: E. coli BL21(DE3) Codon Plus (RIL), purified (Ni-NTA, SEC)) DSLITPHVSRSSTPRESPCGKIAVAVLEETTRERTDVIQGDDVADATSEVEVSSTSETTPKAVVSPPKFVFGSESVKSIFSSEKSKPFAFGNSSATGSLFGFSFNAPLKSNNSETSSVAQSGSESKVEPKKCELSKNSDIEQSSDSKVKNLFASFPTEESSINYTFKTPEKAKEKKKPEDSPSDDDVLIVYELTPTAEQKALATKLKLPPTFFCYKNRPDYVSEEEEDDEDFETAVKKLNGKLYLDGSEKCRPLEENTADNEKECIIVWEKKPTVEEKAKADTLKLPPTFFCGVCSDTDEDNGNGEDFQSELQKVQEAQKSQTEEITSTTDSVYTGGTEVMVPSFCKSEEPDSITKSISSPSVSSETMDKPVDLSTRKEIDTDSTSQGESKIVSFGFGSSTGLSFADLASSNSGDFAFGSKDKNFQWANTGAAVFGTQSVGTQSAGKVGEDEDGSDEEVVHNEDIHFEPIVSLPEVEVKSGEEDEEILFKERAKLYRWDRDVSQWKERGVGDIKILWHTMKNYYRILMRRDQVFKVCANHVITKTMELKPLNVSNNALVWTASDYADGEAKVEQLAVRFKTKEVADCFKKTFEECQQNLMKLQKGHVSLAAELSK
binds | binds |  | RanBP2^2300–2910 (RanBP2^RBD3) (domain or fragment, human, UniProt P49792 2300-2910, looked up, RanBP2 (Nup358), human, residues 2300-2910: contains only RBD3 of the two RBDs; pET28b with a thrombin-cleavable His6 tag; no cleavage is described for the analytical gel filtration runs; source: E. coli BL21(DE3) Codon Plus (RIL), purified (Ni-NTA, SEC)) TQEEERDGQYFEPVVPLPDLVEVSSGEENEQVVFSHRAKLYRYDKDVGQWKERGIGDIKILQNYDNKQVRIVMRRDQVLKLCANHRITPDMTLQNMKGTERVWLWTACDFADGERKVEHLAVRFKLQDVADSFKKIFDEAKTAQEKDSLITPHVSRSSTPRESPCGKIAVAVLEETTRERTDVIQGDDVADATSEVEVSSTSETTPKAVVSPPKFVFGSESVKSIFSSEKSKPFAFGNSSATGSLFGFSFNAPLKSNNSETSSVAQSGSESKVEPKKCELSKNSDIEQSSDSKVKNLFASFPTEESSINYTFKTPEKAKEKKKPEDSPSDDDVLIVYELTPTAEQKALATKLKLPPTFFCYKNRPDYVSEEEEDDEDFETAVKKLNGKLYLDGSEKCRPLEENTADNEKECIIVWEKKPTVEEKAKADTLKLPPTFFCGVCSDTDEDNGNGEDFQSELQKVQEAQKSQTEEITSTTDSVYTGGTEVMVPSFCKSEEPDSITKSISSPSVSSETMDKPVDLSTRKEIDTDSTSQGESKIVSFGFGSSTGLSFADLASSNSGDFAFGSKDKNFQWANTGAAVFGTQSVGTQSAGKVGEDEDGSDEEVVHNEDI
